Data published in patent US8129149B1, “Rapid and sensitive method to measure endonuclease activity” (The United States of America as represented by the …, priority 2008, dated 2012).

Target: T1, Recombinant APE1 (Homo sapiens, UniProt P27695)
T1 construct: purchased NEW ENGLAND BIOLABS
Assay: APE activity assay: APE cleavage of the substrate oligonucleotide, detected by Taq polymerase extension and real-time PCR
Format: biochemical
Settings: well A04; Substrate DNA and Template DNA with APE
Protocol: Recombinant APE1 at 10,000 units/ml in 50% glycerol was purchased from NEW ENGLAND BIOLABS. One unit is defined as the amount of enzyme required to hydrolyze 20 pmol of a 34 bp oligonucleotide duplex containing a single AP site in a 10 ul reaction volume over one hour at 37° C. The reaction buffer consisted of 50 mM potassium acetate, 20 mM Tris-acetate, 10 mM magnesium acetate (pH 7.9) and 1 mM dithiothreitol.
All oligonucleotides, primers and probes were purchased from GENE LINK, INC. (Hawthorne, N.Y.). The two oligonucleotides that are specific to this technique, are designated the substrate and the template. The oligonucleotide with sequence 5′-GGGGTTTTGGGTTTTTTTAATTTTAGGTTGTGGTTGTGGTTGTCGGXGACGTGTTGGTTTTT/3ddC/3′ (SEQ. ID No. 1) serving as the substrate for APE contains the tetrahydrofuran, an abasic analog (X), and a 3′ dideoxy-C to prevent extension by DNA polymerase. […]
Real-time PCR was performed using a BIO-RAD LABORATORIES (Hercules, Calif.) ICYCLER using BIO-RAD LABORATORIES IQTM SUPERMIX. Cycle times were an initial step at 95° C. for 10 minutes followed by an amplification program of 50 cycles of 3 seconds at 95° C., 5 seconds at 61° C., and 20 seconds at 72° C. with fluorescence acquisition in relative florescent units at the end of each extension. […]

T1 sequence (P27695 whole entry): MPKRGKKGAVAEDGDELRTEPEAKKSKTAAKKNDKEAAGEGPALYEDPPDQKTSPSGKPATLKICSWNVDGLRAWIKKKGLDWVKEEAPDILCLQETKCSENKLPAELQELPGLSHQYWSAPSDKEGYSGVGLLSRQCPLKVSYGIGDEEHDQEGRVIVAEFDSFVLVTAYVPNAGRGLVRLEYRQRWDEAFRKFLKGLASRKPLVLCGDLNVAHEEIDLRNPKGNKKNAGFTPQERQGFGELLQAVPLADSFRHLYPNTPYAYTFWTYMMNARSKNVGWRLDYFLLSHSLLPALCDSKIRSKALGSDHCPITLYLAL

B1: 5′-GGGGTTTTGGGTTTTTTTAATTTTAGGTTGTGGTTGTGGTTGTCGGXGACGTGTTGGTTTTT/3ddC/3′ (nucleic acid)
chain: GGGGTTTTGGGTTTTTTTAATTTTAGGTTGTGGTTGTGGTTGTCGGGACGTGTTGGTTTTT
modifications: tetrahydrofuran abasic site; 3' dideoxy-C; SITE (46)...(47) Tetrahydrofuran is used to modify site 46 and 47. Serves as substrate for APE. Substrate is a commercial product. The 3′ end is modified by 3ddc/3′ to prevent extension by DNA polymerase.Chemically Synthesized
notes: substrate for APE; contains the tetrahydrofuran, an abasic analog (X), and a 3′ dideoxy-C to prevent extension by DNA polymerase
  CT of real-time PCR amplification: 26.3
